EC50 data for 1 substance are collected here from patent US20180079819A1.

The target in experiment [1] is extracellular domain of CD123/IL-3Rα (residues 1-306), histidine tagged (human) (UniProt P26951). The experiment in a line: ELISA on plate-coated His-tagged protein, A450. For orientation: In an ELISA, binding on a coated surface is turned into a signal by an enzyme label.
Experiment [2] deals with IL3Rα (1-100) chimeric receptor protein: IL3Rα residues 1-100 fused to GMRα residues 115-325, His-tagged (human) (UniProt P15509). Briefly: ELISA on plate-coated His-tagged protein, A450.
Chain of IL3Rα (1-100) chimeric receptor protein: IL3Rα residues 1-100 fused to GMRα residues 115-325, His-tagged (human) (P15509 other isoform, or with tags, fused parts or gaps mutant limits assumed, form in doubt): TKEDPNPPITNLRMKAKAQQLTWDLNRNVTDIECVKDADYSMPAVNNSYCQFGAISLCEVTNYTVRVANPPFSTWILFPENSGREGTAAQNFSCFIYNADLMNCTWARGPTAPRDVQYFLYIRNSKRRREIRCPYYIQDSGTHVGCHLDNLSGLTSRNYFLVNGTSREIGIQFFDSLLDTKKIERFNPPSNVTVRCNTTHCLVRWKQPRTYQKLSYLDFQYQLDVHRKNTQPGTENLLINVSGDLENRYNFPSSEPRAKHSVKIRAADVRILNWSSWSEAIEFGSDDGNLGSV

Chain of extracellular domain of CD123/IL-3Rα (residues 1-306), histidine tagged (human) (P26951 19-306): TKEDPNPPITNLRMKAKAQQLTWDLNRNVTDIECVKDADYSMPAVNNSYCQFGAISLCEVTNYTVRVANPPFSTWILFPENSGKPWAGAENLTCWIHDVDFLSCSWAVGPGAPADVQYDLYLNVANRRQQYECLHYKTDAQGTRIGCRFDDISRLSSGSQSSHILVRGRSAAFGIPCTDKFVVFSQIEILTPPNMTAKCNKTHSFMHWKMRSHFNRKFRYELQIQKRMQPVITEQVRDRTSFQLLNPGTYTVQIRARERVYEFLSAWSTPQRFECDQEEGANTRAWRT

In the case of ch7G3 (antibody), the EC50 in experiment [1] came out at 0.027 nM; in experiment [2], 0.0306 nM.

The term EC50 denotes the concentration giving half of the maximal effect. Lower therefore signals higher potency in that assay.
